Experimental data from doi:10.1101/2021.02.08.430344.

Columns and labels:
[1] = biological target: T1, SARS-CoV-2 nucleocapsid (N) protein (SARS-CoV-2, UniProt P0DTC9 2-419); test: SV-AUC; […], pH 7.4; ITC at 20 C; […] (137 mM NaCl); details: protein: commercial; tags: C-terminal His-tag; chain copies: 2; single strand
[2] = biological target: T1, SARS-CoV-2 nucleocapsid (N) protein; test: SV-AUC + ITC global fit; […], pH 7.4; ITC at 20 C; […] (137 mM NaCl); details: protein: commercial; tags: C-terminal His-tag; chain copies: 2; single strand

Binder | Kd [1] [nM] | further results
TTTTTTTTTT (ssDNA) [T10] | < 100 | –
TTTTTTTTTTTTTTTTTTTT (ssDNA) [T20] | – | binding result [1]: binds
GTGT (ssDNA) [(GT)2] | > 10000 | –
TTTTTT (ssDNA) [T6] | – | Kd [2]: 600 nM
